Data as given in publication PMC4615653 (RNA Biology, 2015).

Molecular target: the molecule itself
Assay: zonal velocity sedimentation in a glycerol gradient

B1: CshA-His6 (natural protein, S. aureus, UniProt Q2FWH5 1-506, looked up)
chain: MQNFKELGISDNTVQSLESMGFKEPTPIQKDSIPYALQGIDILGQAQTGTGKTGAFGIPLIEKVVGKQGVQSLILAPTRELAMQVAEQLREFSRGQGVQVVTVFGGMPIERQIKALKKGPQIVVGTPGRVIDHLNRRTLKTDGIHTLILDEADEMMNMGFIDDMRFIMDKIPAVQRQTMLFSATMPKAIQALVQQFMKSPKIIKTMNNEMSDPQIEEFYTIVKELEKFDTFTNFLDVHQPELAIVFGRTKRRVDELTSALISKGYKAEGLHGDITQAKRLEVLKKFKNDQINILVATDVAARGLDISGVSHVYNFDIPQDTESYTHRIGRTGRAGKEGIAVTFVNPIEMDYIRQIEDANGRKMSALRPPHRKEVLQAREDDIKEKVENWMSKESESRLKRISTELLNEYNDVDLVAALLQELVEANDEVEVQLTFEKPLSRKGRNGKPSGSRNRNSKRGNPKFDSKSKRSKGYSSKKKSTKKFDRKEKSSGGSRPMKGRTFADHQK
B1 was tested. Which “stoichiometry N” value did it give?
Its value is 2.
